From article PMC7418704 (2020)

Biological target: Monomeric human ACE2 (19-615), Fc tag removed by thrombin (human, UniProt Q9BYF1 19-615)
Test: BLI

Monomeric human ACE2 (19-615), Fc tag removed by thrombin, sequence (Q9BYF1 19-615): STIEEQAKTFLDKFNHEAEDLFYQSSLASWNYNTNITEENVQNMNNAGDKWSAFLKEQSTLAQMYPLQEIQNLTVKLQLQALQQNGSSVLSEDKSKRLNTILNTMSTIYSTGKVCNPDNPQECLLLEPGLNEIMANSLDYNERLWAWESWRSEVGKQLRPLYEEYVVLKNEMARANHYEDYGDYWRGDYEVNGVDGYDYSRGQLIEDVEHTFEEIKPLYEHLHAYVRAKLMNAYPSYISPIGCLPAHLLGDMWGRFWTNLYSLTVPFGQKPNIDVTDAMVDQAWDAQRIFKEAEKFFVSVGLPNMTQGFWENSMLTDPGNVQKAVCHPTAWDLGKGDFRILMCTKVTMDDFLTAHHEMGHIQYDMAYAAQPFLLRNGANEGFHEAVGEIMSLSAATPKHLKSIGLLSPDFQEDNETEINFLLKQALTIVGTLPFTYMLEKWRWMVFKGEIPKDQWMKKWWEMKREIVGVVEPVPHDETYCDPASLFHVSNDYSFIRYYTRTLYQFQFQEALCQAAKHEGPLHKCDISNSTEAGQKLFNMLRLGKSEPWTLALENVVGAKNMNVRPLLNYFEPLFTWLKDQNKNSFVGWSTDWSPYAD

B1: SARS-CoV-1 RBD (306-575), mammalian-expressed, purified (domain or fragment)
chain: not shown
Kd: 575 nM
